Data reported in publication PMC10530723, “The Conserved Chromatin Remodeler SMARCAD1 Interacts with TFIIIC and Architectural Proteins in Human and Mouse” (Genes, 2023).

Biological target: T1, His-SMARCAD1 (human, recombinant) (human, UniProt Q9H4L7 1-1026)
T1 construct: also called hSMARCAD1; His-tagged human SMARCAD1; source: insect cells (baculovirus), purified via a His-tag
T1 sequence (looked up): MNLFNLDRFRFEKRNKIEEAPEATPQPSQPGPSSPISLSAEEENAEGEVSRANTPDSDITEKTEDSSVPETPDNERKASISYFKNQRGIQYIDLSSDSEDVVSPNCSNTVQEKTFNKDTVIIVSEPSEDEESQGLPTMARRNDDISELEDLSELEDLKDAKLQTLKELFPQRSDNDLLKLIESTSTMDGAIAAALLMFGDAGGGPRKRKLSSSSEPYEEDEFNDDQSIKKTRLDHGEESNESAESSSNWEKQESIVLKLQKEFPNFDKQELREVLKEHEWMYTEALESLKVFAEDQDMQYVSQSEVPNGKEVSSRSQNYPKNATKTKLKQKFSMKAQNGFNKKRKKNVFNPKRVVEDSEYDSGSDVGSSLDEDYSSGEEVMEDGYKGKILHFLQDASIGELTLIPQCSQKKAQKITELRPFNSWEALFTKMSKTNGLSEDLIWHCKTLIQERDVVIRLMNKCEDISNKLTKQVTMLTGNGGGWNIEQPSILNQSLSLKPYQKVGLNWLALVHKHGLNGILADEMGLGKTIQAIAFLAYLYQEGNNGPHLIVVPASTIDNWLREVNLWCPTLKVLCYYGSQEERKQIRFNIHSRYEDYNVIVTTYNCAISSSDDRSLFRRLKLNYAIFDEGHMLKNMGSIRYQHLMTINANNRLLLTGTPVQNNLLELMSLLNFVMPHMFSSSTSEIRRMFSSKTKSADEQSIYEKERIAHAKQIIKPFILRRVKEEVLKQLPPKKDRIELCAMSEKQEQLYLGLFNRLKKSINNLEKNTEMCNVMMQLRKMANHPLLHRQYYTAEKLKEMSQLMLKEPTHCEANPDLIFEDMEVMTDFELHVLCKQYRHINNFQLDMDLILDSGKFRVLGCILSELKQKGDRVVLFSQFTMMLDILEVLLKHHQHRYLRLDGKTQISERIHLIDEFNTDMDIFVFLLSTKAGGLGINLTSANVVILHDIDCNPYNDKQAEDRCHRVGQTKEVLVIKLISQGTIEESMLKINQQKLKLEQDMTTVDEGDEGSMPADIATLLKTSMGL
Assay: pull-down; GST fusion proteins on glutathione Sepharose 4B beads (13 ug protein), 1 ug His-Smarcad1 in solution; 100 mM NaCl, 20 mM Hepes, 5% glycerol, 0.1% Triton; 1.5 h at 4 °C; bound protein detected by Western blot with anti-SMARCAD1
Details: both partners purified

B1: GST-TFIIIC102 (human, full-length) (natural protein, UniProt Q9Y5Q9 1-886, looked up)
chain: MSGFSPELIDYLEGKISFEEFERRREERKTREKKSLQEKGKLSAEENPDDSEVPSSSGINSTKSQDKDVNEGETSDGVRKSVHKVFASMLGENEDDEEEEEEEEEEEEEEETPEQPTAGDVFVLEMVLNRETKKMMKEKRPRSKLPRALRGLMGEANIRFARGEREEAILMCMEIIRQAPLAYEPFSTLAMIYEDQGDMEKSLQFELIAAHLNPSDTEEWVRLAEMSLEQDNIKQAIFCYTKALKYEPTNVRYLWERSSLYEQMGDHKMAMDGYRRILNLLSPSDGERFMQLARDMAKSYYEANDVTSAINIIDEAFSKHQGLVSMEDVNIAAELYISNKQYDKALEIITDFSGIVLEKKTSEEGTSEENKAPENVTCTIPDGVPIDITVKLMVCLVHLNILEPLNPLLTTLVEQNPEDMGDLYLDVAEAFLDVGEYNSALPLLSALVCSERYNLAVVWLRHAECLKALGYMERAAESYGKVVDLAPLHLDARISLSTLQQQLGQPEKALEALEPMYDPDTLAQDANAAQQELKLLLHRSTLLFSQGKMYGYVDTLLTMLAMLLKVAMNRAQVCLISSSKSGERHLYLIKVSRDKISDSNDQESANCDAKAIFAVLTSVLTKDDWWNLLLKAIYSLCDLSRFQEAELLVDSSLEYYSFYDDRQKRKELEYFGLSAAILDKNFRKAYNYIRIMVMENVNKPQLWNIFNQVTMHSQDVRHHRFCLRLMLKNPENHALCVLNGHNAFVSGSFKHALGQYVQAFRTHPDEPLYSFCIGLTFIHMASQKYVLRRHALIVQGFSFLNRYLSLRGPCQESFYNLGRGLHQLGLIHLAIHYYQKALELPPLVVEGIELDQLDLRRDIAYNLSLIYQSSGNTGMAQTLLYTYCSI
notes: TFIIIC102, human, full-length, cDNA from OriGene (RC208122) cloned into pGEX-6P-1 (BamH1/Not1); pGEX-6P-1 places GST at the N-terminus (surmised from the vector; the reverse primer carries the stop codon); also called hTFIIIC102; human TFIIIC102 GST-fusion protein; source: E. coli, purified (glutathione Sepharose 4B beads)
**Q.** Does B1 bind?
**A.** Result: binds
